The target in assay [1] is T1, human TPBG extracellular domain, huIgG1-Fc-His6 (human).
T1 construct: also called Fc-TPBG (hu)
Briefly: ELISA; Fc-TPBG coated; mAb titrated from 1 µg/ml. (In general: In an ELISA, binding on a coated surface is turned into a signal by an enzyme label.)

In assay [2] the target is T2, minipig TPBG extracellular domain, huIgG1-Fc-His (minipig).
T2 construct: also called Fc-TPBG (mp)
Nature of the assay: ELISA; Fc-TPBG coated; mAb titrated from 1 µg/ml.

Assay [3] has as its target T3, rat TPBG extracellular domain, huIgG1-Fc-His6 (rat).
T3 construct: also called Fc-TPBG (rt)
Nature of the assay: ELISA; Fc-TPBG coated; (-) = no binding.

The target in assay [4] is T4, cynomolgus TPBG extracellular domain, huIgG1-Fc-His6 (cynomolgus).
T4 construct: also called Fc-TPBG (cy)
Nature of the assay: ELISA; Fc-TPBG coated; (-) = no binding.

The target of assay [5] is T5, murine TPBG extracellular domain, huIgG1-Fc-His6 (murine).
T5 construct: also called Fc-TPBG (mo)
Nature of the assay: ELISA; Fc-TPBG coated; (-) = no binding.

Assay [6] addresses T3, rat TPBG extracellular domain, …. Briefly: ELISA; Fc-TPBG coated; mAb titrated from 1 µg/ml.
The target of assay [7] is T6, minipig TPBG, full length, cell surface expressed on CHO-K1 cells (minipig).
T6 construct: also called pgTPBG; mpTPBG
T6 chain: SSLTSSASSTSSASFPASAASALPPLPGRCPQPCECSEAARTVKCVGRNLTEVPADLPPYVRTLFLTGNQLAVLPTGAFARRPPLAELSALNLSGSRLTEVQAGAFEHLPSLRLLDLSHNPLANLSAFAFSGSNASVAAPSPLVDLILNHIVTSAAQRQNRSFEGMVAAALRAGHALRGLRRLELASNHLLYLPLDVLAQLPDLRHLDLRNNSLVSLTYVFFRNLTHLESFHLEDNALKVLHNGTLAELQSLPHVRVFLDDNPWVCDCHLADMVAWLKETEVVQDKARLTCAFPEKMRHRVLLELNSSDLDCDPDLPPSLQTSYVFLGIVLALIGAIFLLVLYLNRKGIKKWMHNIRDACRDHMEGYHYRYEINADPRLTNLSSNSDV
Nature of the assay: flow cytometry on CHO cells stably expressing minipig TPBG; Fab dilution series 0.01-20 µg/ml, PE-labelled anti-kappa secondary antibody.

Assay [8] deals with T7, human TPBG (trophoblast glycoprotein), full length, cell surface expressed (human, UniProt Q13641 32-420).
T7 sequence: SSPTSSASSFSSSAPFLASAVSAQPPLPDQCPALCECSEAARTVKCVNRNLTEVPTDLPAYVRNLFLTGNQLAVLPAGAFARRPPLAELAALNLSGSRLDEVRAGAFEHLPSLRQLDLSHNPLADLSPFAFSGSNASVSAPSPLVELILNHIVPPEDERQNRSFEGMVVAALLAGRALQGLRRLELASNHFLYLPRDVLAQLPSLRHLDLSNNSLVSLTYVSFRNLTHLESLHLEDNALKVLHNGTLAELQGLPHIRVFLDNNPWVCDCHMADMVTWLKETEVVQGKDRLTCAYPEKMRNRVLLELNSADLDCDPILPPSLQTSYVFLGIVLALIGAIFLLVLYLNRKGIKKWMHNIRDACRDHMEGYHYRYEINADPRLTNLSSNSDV
Nature of the assay: cell-based or functional assay.

Assay [9] deals with T6, minipig TPBG, full length, cell surface …. Briefly: cell-based or functional assay.
Assay [10] concerns the target T7, human TPBG (trophoblast glycoprotein), …. Nature of the assay: cell-based or functional assay. This is another data set of the same source.
For assay [11], the target named is T6, minipig TPBG, full length, cell surface …. Nature of the assay: cell-based or functional assay.
Assay [12] concerns the target T7, human TPBG (trophoblast glycoprotein), …. Nature of the assay: cell-based or functional assay. This is another data set of the same source.
Assay [13] addresses T8, huTPBG (recombinant human TPBG immobilised on the Biacore chip) (human, UniProt Q13641 32-355, limits assumed).
T8 construct: also called human TPBG antigen
T8 sequence: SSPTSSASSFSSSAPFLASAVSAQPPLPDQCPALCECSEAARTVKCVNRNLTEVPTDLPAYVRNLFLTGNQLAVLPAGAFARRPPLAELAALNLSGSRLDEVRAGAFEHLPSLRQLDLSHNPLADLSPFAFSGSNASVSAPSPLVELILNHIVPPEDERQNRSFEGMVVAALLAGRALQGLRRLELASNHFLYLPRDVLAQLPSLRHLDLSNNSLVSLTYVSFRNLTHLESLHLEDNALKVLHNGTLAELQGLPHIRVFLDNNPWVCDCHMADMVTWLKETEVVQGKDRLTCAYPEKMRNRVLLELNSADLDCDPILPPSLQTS
Nature of the assay: SPR Biacore T200; huTPBG amine-coupled, Fab injected.

The target of assay [14] is T7, human TPBG (trophoblast glycoprotein), …. Briefly: flow cytometry on SW620 clone 4 cells; ratio of MFI; replicate 1. Background: In flow cytometry, cells or beads pass a laser one at a time.
For assay [15] the target is unchanged. Nature of the assay: cell-based or functional assay. The source holds these as a separate data set.
Assay [16] concerns the target T9, recombinant extracellular domain of minipig TPBG (Biacore analyte) (minipig).
T9 chain: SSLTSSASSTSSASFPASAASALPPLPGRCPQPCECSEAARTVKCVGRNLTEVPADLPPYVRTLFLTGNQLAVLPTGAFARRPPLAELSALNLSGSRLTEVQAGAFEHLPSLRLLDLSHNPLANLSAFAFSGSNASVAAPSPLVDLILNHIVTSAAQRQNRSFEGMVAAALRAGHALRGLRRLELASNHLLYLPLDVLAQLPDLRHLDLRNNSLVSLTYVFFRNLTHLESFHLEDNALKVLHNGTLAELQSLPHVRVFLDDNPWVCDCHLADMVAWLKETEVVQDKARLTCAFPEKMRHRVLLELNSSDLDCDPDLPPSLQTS
Briefly: SPR (Biacore T200): Fab captured on anti-huFab antibody, minipig TPBG injected for 120 s at 4.9-400 nM, dissociation 660 s. (In general: In SPR one partner is held on a chip, and binding of the other changes the refractive index at the surface.)

In assay [17] the target is T7, human TPBG (trophoblast glycoprotein), …. Nature of the assay: flow cytometry on SW620 clone 4 cells; ratio of MFI; replicate 2.
Assay [18] shares this target. Nature of the assay: cell-based or functional assay. The source holds these as a separate data set.

The results in this text go back to patent US20180311371A1 (Hoffmann-La Roche, published 2018).

T5 sequence (chain, as listed by the source limits assumed): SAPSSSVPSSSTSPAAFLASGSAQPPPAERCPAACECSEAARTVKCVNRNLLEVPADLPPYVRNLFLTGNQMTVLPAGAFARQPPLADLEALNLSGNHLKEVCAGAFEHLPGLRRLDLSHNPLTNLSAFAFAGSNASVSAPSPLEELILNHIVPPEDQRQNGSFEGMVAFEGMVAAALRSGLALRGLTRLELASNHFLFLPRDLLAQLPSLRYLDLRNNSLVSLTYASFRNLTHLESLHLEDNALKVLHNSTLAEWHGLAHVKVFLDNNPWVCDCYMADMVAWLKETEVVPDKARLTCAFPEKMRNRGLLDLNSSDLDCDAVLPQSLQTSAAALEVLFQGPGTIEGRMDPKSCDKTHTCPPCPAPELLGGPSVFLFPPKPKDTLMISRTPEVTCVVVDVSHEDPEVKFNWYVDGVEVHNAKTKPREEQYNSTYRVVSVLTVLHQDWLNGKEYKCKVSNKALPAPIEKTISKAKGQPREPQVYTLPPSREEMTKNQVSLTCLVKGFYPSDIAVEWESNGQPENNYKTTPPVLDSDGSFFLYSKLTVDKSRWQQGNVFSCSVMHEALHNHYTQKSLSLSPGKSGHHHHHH
T3 sequence (chain, as listed by the source limits assumed): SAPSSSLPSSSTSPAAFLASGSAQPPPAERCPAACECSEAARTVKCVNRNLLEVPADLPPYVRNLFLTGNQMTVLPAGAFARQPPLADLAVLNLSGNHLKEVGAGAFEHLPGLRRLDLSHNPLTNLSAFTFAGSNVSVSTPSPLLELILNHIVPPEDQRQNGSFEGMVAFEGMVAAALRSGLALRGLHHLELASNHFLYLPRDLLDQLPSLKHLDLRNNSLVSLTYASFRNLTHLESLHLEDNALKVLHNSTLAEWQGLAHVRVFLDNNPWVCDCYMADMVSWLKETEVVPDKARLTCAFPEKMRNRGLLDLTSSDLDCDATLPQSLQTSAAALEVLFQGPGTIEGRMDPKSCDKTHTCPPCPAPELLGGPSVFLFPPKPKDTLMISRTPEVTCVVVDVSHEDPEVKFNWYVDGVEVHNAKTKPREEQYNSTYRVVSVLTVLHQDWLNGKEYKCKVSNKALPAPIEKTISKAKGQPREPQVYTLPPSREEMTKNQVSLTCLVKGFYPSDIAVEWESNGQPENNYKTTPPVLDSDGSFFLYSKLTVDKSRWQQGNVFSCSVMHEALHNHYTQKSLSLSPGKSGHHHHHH
T4 sequence (chain, as listed by the source limits assumed): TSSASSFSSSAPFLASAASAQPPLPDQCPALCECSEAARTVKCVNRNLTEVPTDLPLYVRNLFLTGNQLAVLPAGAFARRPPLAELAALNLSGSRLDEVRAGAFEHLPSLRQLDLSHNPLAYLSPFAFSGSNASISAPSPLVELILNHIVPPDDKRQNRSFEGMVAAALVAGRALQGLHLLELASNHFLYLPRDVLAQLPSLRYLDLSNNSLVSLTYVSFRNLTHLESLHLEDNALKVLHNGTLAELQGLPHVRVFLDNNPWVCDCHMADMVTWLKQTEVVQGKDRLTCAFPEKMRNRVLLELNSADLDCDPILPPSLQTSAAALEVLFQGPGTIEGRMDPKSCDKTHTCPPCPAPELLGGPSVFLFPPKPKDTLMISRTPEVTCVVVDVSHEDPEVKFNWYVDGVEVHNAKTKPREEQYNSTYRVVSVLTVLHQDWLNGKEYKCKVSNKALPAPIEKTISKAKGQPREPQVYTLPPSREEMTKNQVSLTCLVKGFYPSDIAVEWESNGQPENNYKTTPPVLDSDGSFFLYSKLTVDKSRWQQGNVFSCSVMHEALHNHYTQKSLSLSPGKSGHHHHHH

B1: anti-TPBG antibody 097 (mAb) (antibody, V domains shown)
VH: EVQLLESGGGLAQPGGSLRLSCAASGFTFNNDAMTWVRQAPGKGLEWVSAISGSGGSTYYADSVKGRFTISRDNSKNTLYLQMNSLRAEDTAVYYCAKGGSWGDWYYYFYPMDVWGQGTTVTVSS
VL: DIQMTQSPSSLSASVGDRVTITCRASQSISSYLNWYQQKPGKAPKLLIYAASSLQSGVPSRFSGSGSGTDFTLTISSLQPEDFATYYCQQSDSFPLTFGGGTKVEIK
With B1, the binding result was “binds” in assay [1]; “binds” in [2]; “no binding (tested: titrated from 1 µg/ml)” in assay [3]; “no binding (tested: titrated from 1 µg/ml)” in [4]; “no binding (tested: titrated from 1 µg/ml)” in assay [5].

B2: anti-TPBG antibody 091 (mAb) (antibody, V domains shown)
VH: EVHLLESGGGLVHPGGSLRLSCAASGFTFRSDAMHWVRQAPGKGLEWVSGVSGSGGSPYYADSVKGRFTISRDDSKTTLYLQMNSLRAEDTAVYYCATGGSIAGSYYYYPMDVWGQGTTVTVSS
VL: DIQMTQSPSSLSASVGDRVTITCQASQDISNYLNWYQQKPGKAPKLLIYAASTLQIGVPSRFSGSGSGTDFTFTISSLQPEDFATYYCQQANSFPLTFGGGTKVEIK
For the molecule B2, the binding result in assay [1] is listed as “binds”; in [2], “binds”; in [6], “binds”; in [5], “no binding (tested: titrated from 1 µg/ml)”.

B3: prior art anti-TPBG antibody H8, Fab fragment (Fab, V domains shown)
VH: EVQLQQSGPDLVKPGASVKISCKASGYSFTGYYMHWVKQSHGKSLEWIGRINPNNGVTLYNQKFKDKAILTVDKSSTTAYMELRSLTSEDSAVYYCARSTMITNYVMDYWGQVTSVTVSS
VL: SIVMTQTPTFLLVSAGDRVTITCKASQSVSNDVAWYQQKPGQSPTLLISYTSSRYAGVPDRFIGSGYGTDFTFTISTLQAEDLAVYFCQQDYNSPPTFGGGTKLEIKR
notes: also called Fab(H8); Fab1
Usually Kd stands for the concentration at which binding is half-saturated. As usually defined, the koff is the first-order rate constant of dissociation. One may read the kon as the second-order rate constant of association. Consider B3, for which the binding result in assay [7] is reported as “no binding (tested: 20 µg/ml)”. In assay [8], the “EC50 cytotoxicity, Fab-PE sandwich construct, MCF7” value came out at 1.25 nM. In [9], the “fold lower potency on minipig TPBG cells than on human TPBG cells, sandwich construct” value is approximately 100 fold. Further, in [10], the “internalization after 1.0 h, MCF7 cells” value turned out to be 61% and the “internalization after 2.0 h, MCF7 cells” value worked out at 79%. In assay [11], the “EC50 cytotoxicity, Fab + anti-kappa-Fab-PE, CHO-K1/minipig TPBG, replicate 1” value is 48 nM and the “EC50 cytotoxicity, Fab + anti-kappa-Fab-PE, CHO-K1/minipig TPBG, replicate 2” value amounted to 45.9 nM. Moreover, in [12], the “EC50 cytotoxicity, Fab + anti-kappa-Fab-PE, CHO-K1/human TPBG, replicate 1” value stood at 0.41 nM and the “EC50 cytotoxicity, Fab + anti-kappa-Fab-PE, CHO-K1/human TPBG, replicate 2” value amounted to 0.52 nM. For the same molecule, in assay [13], the Kd worked out at 0.00158 nM, the koff is 2.17e-07 s⁻¹ and the kon was determined as 137000 M⁻¹ s⁻¹. Also, the “Fold change pH 7.2 vs pH 5.5” value in assay [14] was 4.2 fold. The “EC50 cytotoxicity, Fab-PE sandwich construct, MCF7 (comparison with A1-A3)” value in assay [15] worked out at 1.85 nM. Moreover, the binding result in [16] is “no binding”. Also, in assay [17], the “Fold change pH 7.2 vs pH 5.5” value came to 6.8 fold. In assay [18], the “EC50 cytotoxicity, Fab-PE sandwich construct, H1975, replicate 1” value is 0.698 nM; the “EC50 cytotoxicity, Fab-PE sandwich construct, H1975, replicate 2” value was 0.451 nM; the “EC50 cytotoxicity, Fab-PE sandwich construct, H1975, replicate 3” value is 0.656 nM.
